Tests used:
[1] = target: T1, SpyCas9 (Streptococcus pyogenes serotype M1, UniProt Q99ZW2); experiment: Cas9 luciferase reporter cleavage assay (dual luciferase); assay type: cell-based; conditions: HEK 293T, 48 h post-transfection; for effect on Cas9-caused firefly luciferase knockdown (Cas9 inhibition): with or without N-terminal SV40 NLS
T1 construct: 2A-GFP (C); host or cells: HEK 293T
Description: HEK 293T cells were seeded into black, clear-bottom 96-well plates (Corning) at a density of ˜12.500 cells per well Twenty-four hours after seeding, cells were transfected according to the manufacturer's instructions using Lipofectamine® 2000 and Opti-MEM® reduced serum medium (Thermo Fisher).
For the dCas9-VP64 trans-activation assays, 50 ng/well of each, a plasmid encoding dCas9-VP64_GFP (Addgene plasmid #61422, kind gift from Feng Zhang), a tet-inducible firefly luciferase reporter (Addgene plasmid #64127, kind gift from Moritoshi Sato) and a TetO-targeting guide RNA vector (Addgene plasmid #64161, kind gift from Moritoshi Sato) were co-transfected alongside 1 ng/well pRL-TK (TK-driven Renilla expression vector for normalization; Promega) as well as 1-50 ng/well of the AcrIIA4 constructs and, optionally, stuffer DMA (pcDNA3.1(−) (Invitrogen)). For the reporter cleavage assay, a plasmid encoding an H1 promoter-driven guideRNA as well as firefly luciferase and Renilla luciferase was co-transfected alongside Cas9 expression vector pSpCas9(BB)-2A-GFP (PX453; Addgene plasmid #48138, kind gift from Feng Zhang) as weft as the corresponding AcrIIA4 variant (50 ng/well each). […]
(§1) Six h post-transfection, medium was replaced and the cells were illuminated with 460 nm pulsatile blue light (light intensity 2-3 W/m^2 as measured with a LI-COR LI-250A Light Meter, pulsatile illumination regime is indicated in figure legends) or kept in the dark under otherwise identical conditions for 32-42 h (indicated in figure legends). […] Subsequently, the luciferase activity was measured using the Dual-Glo luciferase assay kit (Promega) according to the manufacturer's protocol. In brief, the cells were lysed using the provided lysis buffer and tire activity of firefly and Renilla luciferase was quantified using a GLOMAX 96 Microplate Luminometer (Promega) with automated injectors (delay time 2 s, integration time 10 s). The relative luciferase activity was calculated by dividing the firefly luciferase photon counts by the Renilla luciferase photon counts. […]

[2] = target: T2, dCas9-VP64 (Streptococcus pyogenes serotype M1, UniProt Q99ZW2, D10A/N863A); experiment: dCas9-VP64 luciferase reporter trans-activation assay; assay type: cell-based; conditions: HEK 293T
T2 construct: host or cells: HEK 293T
Description: HEK 293T cells were seeded into black, clear-bottom 96-well plates (Corning) at a density of ˜12.500 cells per well Twenty-four hours after seeding, cells were transfected according to the manufacturer's instructions using Lipofectamine® 2000 and Opti-MEM® reduced serum medium (Thermo Fisher). […]
as §1

[3] = target: T3, Cas9 (Streptococcus pyogenes serotype M1, UniProt Q99ZW2); experiment: T7 endonuclease assay, CFTR locus editing; assay type: cell-based; conditions: HEK 293T
T3 construct: expressed in transfected cells; host or cells: HEK 293T
Description: HEK 293T cells were seeded into transparent 96-well plates (Coming). […] Sixteen It post-transfection, cells were irradiated with blue light (7 s ON, 7 s OFF, 3 W/m^2) for 32 h or kept in the dark as control. Subsequently, cells were washed with PBS and lysed using the DirectPCR lysis reagent (PcqLab). A fragment spanning the edited part of the CFTR locus was PCR-amplified using Q5 polymerase and the following primers: CFTR_fw: 5′-[…]-3′, SEQ ID NO: 30; CFTR_re: 5′-[…]-3′, SEQ ID NO: 31). The PCR reaction was run on an agarose gel and the amplicon was purified using a QIAGEN Gel Extraction Kit. Two hundred ng of PCR diluted in 19.5 μl 1× NEB Buffer 2 were then healed up to 95° C. followed by re-annealing in a thermocycler. Next, 0.5 μl of T7 Endonuclease (NEB) were added, and the reaction was incubated at 37° C. for 15 min and then stopped by adding EDTA-containing gel loading dye. Lastly, T7 reactions were analyzed on a 2% agarose gel stained with GelRed (Biotium, Inc.).

[4] = tested on: HEK 293T cells; experiment: Light-induced nuclear export, mCherry fluorescence imaging; assay type: cell-based, human
Description: FIG. 5: Induced nuclear export inhibits AcrIIA4 function. (A) Schematic of AcrIIA4 construct fused to mCherry-LEXY. LEXY, light-inducible nuclear export system; fusion polypeptide sequence is SEQ ID NO: 114 (encoded by SEQ ID NO: 74). (B) Fluorescence images of HEK 293T cells transfected with the construct in A. mCherry images were taken prior to induction (Preinduction), after 15 min of irradiation with blue light (Post Activation) and after an additional 20 min recovery phase in the absence of blue light (Post Recovery). (C) Line profile of the indicated cell in B, (D) Bar plot showing control of dCas9-VP64-mediated luciferase reporter activation by NLS-AcrIIA4-mCherry-LEXY. […]
To test whether sequestering AcrIIA4 away from the nucleus could be a possible mode for allosteric Acr control we employed a light-inducible nuclear export system (LEXY) previously reported (Niopek et al., 2016), which mediates the nuclear export of proteins fused to the LEXY domain (an AsLOV2-Nuclear Export Signal-Hybrid) in response to blue light. […] The nuclear mChcrry fluorescence fully recovered within 20 min when blue-light irradiation was stopped, showing that AcrIIA4 nuclear export was reversible (FIGS. 5B and Q.

Substance: AcrIIA4: anti-CRISPR polypeptide of a Listeria monocytogenes prophage, SEQ ID NO: 1 [reference compound]
- effect on Cas9-caused firefly luciferase knockdown (Cas9 inhibition) [1]: strongly reduced

Substance: SV40 NLS-AcrIIA4: N-terminal SV40 NLS fusion to AcrIIA4; SEQ ID NO: 115
- effect on Cas9-caused firefly luciferase knockdown (Cas9 inhibition) [1]: full recovery of the luciferase reporter signal

Substance: cMyc^PIA NLS-mCherry-AcrIIA4
- AcrIIA4 activity due to nuclear targeting (dCas9-VP64 inhibition) ([2]; 48 h post-transfection): boost in AcrIIA4 activity

Substance: construct 1: LOV2 inserted between AcrIIA4 residues E66/Y67, no linkers; SEQ ID NO: 88
- Cas9 inhibition in the dark (CFTR locus editing) ([3]; Cas9:AcrIIA4 construct 1:1, dark): no significant
- light-dependent Cas9 inhibition (CFTR locus editing light vs dark) ([3]; Cas9:AcrIIA4 construct 1:4, blue light 32 h or dark): inhibited Cas9 in a light-dependent manner
- Cas9 block in the dark (CFTR editing in dark sample) ([3]; Cas9:AcrIIA4 construct 1:4, dark): did not fully block Cas9
- Cas9 inhibition in the absence of blue light ([1]; LOV2 insertion screen at 41 positions): highest

Substance: NLS-AcrIIA4-mCherry-LEXY: NLS-tagged AcrIIA4 fused to mCherry and light-inducible nuclear export system LEXY; SEQ ID NO: 114
- dCas9-VP64-mediated luciferase reporter induction upon light-induced nuclear export ([2]; blue light vs dark, dose-dependent): noticeable increase
- time to full recovery of nuclear mCherry fluorescence after blue-light irradiation was stopped [4]: ≤ 20 min
- nuclear mCherry fluorescence upon blue-light irradiation ([4]; 15 min blue light): fast and strong decrease
